In test [1] the target is Mus dunni endogenous virus (MDEV) receptor on M. dunni cells (Mus dunni).
Test [2] shares this target. The source holds these as a separate data set.
For test [3] the target is unchanged. The source holds these as a separate data set.
The target of test [4] is Mus dunni endogenous virus (MDEV) receptor on primary human dermal fibroblasts (human).

In the case of “Balb/c 3T3 IdU-induced retrovirus (BIRV) envelope”, the LAPSN titer, BIRV pseudotype on M. dunni cells infected with MDEV (8 × 10^4 on uninfected cells) in test [1] worked out at 60000 FFU/ml.
With “Mus dunni endogenous virus (MDEV) envelope protein”, the Fold Interference, LAPSN(PD223) titer on dunni/N2 against dunni/N2 + MDEV (fold interference) in test [2] is over 20000. Besides, the log10 of the fold interference, LAPSN(MDEV) on dunni/LN cells infected with MDEV (log10 of the fold interference) in test [3] was 5.5. This substance came in with an LAPSN titer, MDEV pseudotype on M. dunni cells infected with MDEV (6 × 10^5 on uninfected cells) in test [1] of 3 FFU/ml. Moreover, the inhibition of transduction, LAPSN(MDEV) on HDF cells infected with MDEV in test [4] was found to be 100 fold.
Substance “envelope protein of NZB xenotropic virus” yielded an LAPSN titer, MDEV pseudotype on M. dunni cells infected with xenotropic virus (6 × 10^5 on uninfected cells) in test [1] of 400000 FFU/ml.
Take “envelope protein of amphotropic MLV strain 4070A”: the Fold Interference, LAPSN(PA317) titer on dunni/N2 against dunni/N2 + MDEV (fold interference) in test [2] was found to be 1.
In turn, “envelope protein of amphotropic virus (AM-MLV)” showed an LAPSN titer, MDEV pseudotype on M. dunni cells infected with amphotropic virus (6 × 10^5 on uninfected cells) in test [1] of 400000 FFU/ml.
In test [1], “envelope protein of polytropic (MCF) virus strain 98D” came in with an LAPSN titer, MDEV pseudotype on M. dunni cells infected with polytropic virus (6 × 10^5 on uninfected cells) of 400000 FFU/ml.

For the origin of these results see patent US6136598.
